Results on two molecules are retold here after article PMC6055799.

This assay deals with GFP-RTN1 (reticulon RTN1 fused to GFP; FRET donor) (Arabidopsis). Kind of assay: FRET or BRET; FRET-FLIM (two-photon microscope): donor GFP-RTN1 and RFP-tagged acceptor coinfiltrated into N. tabacum leaf epidermal cells, measured after 48 h in low-mobility ER continuous with the nuclear envelope; donor lifetime compared with GFP-RTN1 alone.

With “AtLNP2-RFP (Arabidopsis Lunapark 2, splice variant AtLNP2.1, fused to RFP; FRET acceptor) (natural protein)”, the reduction of the donor (GFP-RTN1) fluorescence lifetime is 0.2 ns.

B1: AtLNP1-RFP (Arabidopsis Lunapark 1 fused to RFP; FRET acceptor) (natural protein)
chain: MAVGEKEHEGTVVESGGEKNDSAVVLSASGEKKTTKRKGLFSRLWNAIFRVRGDDFEKRLKNISKEEATVRNRMKRRSITRRNFIRNLIAFSVFFEVIAVSYAIMTTRDEDLDWKLRSFRILPMFLLPAVAFLLYSSLVGFWRMCDRRDQHTLEKLQAEMLGKINELKERTNYYITQQLIQRYDPDPAAKAAAATVLASKLGAESGLKVFVGDESQLEPTAGKNNAKHSGGLRNRKQTNTRGNSAETTPIHHSDNESNHSGTSERITGTEQNQQMVFEHYNPQEYAAHDGSWISRIAALLVGEDPSQSYALICGNCRMHNGLARKEDFPYITYYCPHCRALNKPKHSEEHSLIAPADTLPKVSLKPMESEVINSSSSTSERGNSPIPLLHTPEIVEEVPETAENETPN
The molecule B1 yielded a reduction of the donor (GFP-RTN1) fluorescence lifetime of 0.2 ns.
